# From a protein production outcome set (Wang et al. 2014)
# Assay: label from the status in PepcDB records
row,Sequence,protein production
1,TLEQLPSAQSTLVSLDANNGALRALVGGFSFTANKFNRATQARRQPGSSFKPFVYSAALEKGFNPASIVPDAPVIFRDRRGHTWSPQNDDGKFQGPMRIRDALVQSRNLVSVRLLDAIGIDFARNYITQFGFEENEIPPNLSMSLGTASLTPLSIARGYAVFANGGFRIDPWLIDEIHDREHKLIFKNNPKVACSSCTSANTNVTQSTSHLVDGFNFGAPTKTEPSKPVKNNNEPTQTIPSPDPNTPMAPRAIDERVVFQLVSMMRDVVLRGTATAARSLNRQDIAGKTGSTNEHRDAWFSGFGGPYVTTVWVGRDDFQSLGYREYGGKAALPIWIEYMRTALKDKPIARN,failed
2,TLEWPELLQQCEQLNKPNQINLNPALLWQCQGVGSAPPASNLRESRIKAVLAINPVTNPIFGPDGMKNLAVPTLIVAGSKDIFAPPVPEQIIPFSLIEGVNKYLLLVQNGTHLSFLEDTDNLPEKIVGPGQDLAYTYMKSLGLAFFDLYLQQDSSFKPYLTDSVVQQMSQEPLPLQLVPSL,failed
3,TLGKETKTTVHKFGLEPPSELIQKQLRANLDDDIWEVIRSRKIDGEHVILDKDYFFRKHVPHLTKEICENSIYEYIEGELGLSISYAQKEIVAEPCTDEDRELLDLRGYDHMVVVRNYVFLEDTSLFQYTESRHRLDKFRFVDFARRGK,not failed
4,TNPQAVIGDSPTTSATQSKAVVVEFSDFQCPYCAKAHDTLKQLLAKHPGEITLVYKHLPLIPIHNEAMPAAKAAWAATQQGKFWEYHDALFSNQKQLGEALYLDIAKKLNLDLEKFNSDRLLADAAISKDIQIAQKLAIAGTPFFIMNSKTFSGGIDLSEIENKL,failed
5,TPLLAILFIAQVSGSGRRVGVVGWPDLNYAGVLGYGGCYERIFAVPQQERTSLRVVTALAHGCDLVITRAGPTPRTYTPLQTQRFRNSLRSDAGCVIMMGDHVVSPAARLASAVVGYHGIGKGTGRIKAVEITVTGIAKGFYRTSRVIVGKHIAPAAEKTTMK,failed
6,TRRIMQLVFTDVTKHKEYEETLRKEQQVVQDILDFQSSIVLVAGSDEGVLSANRSALDFFGFRDVKEFRMHYRCICEAFIDREGFLKNRHEAWLHEALLANQTGRDSKAIIKDRHSGEERIFVVKVGRYPRDSHKFIVSLTD,failed
7,TSKQRYSGKVHLCVARYSYNPFDGPNENPEAELPLTAGKYLYVYGDMDEDGFYEGELLDGQRGLVPSNFVDFVQDNESRLAST,not failed
8,TSVKEFAMKHDHFVVQSPDKPAQQLLLLFHGVGDNPVAMGEIGSWFAPLFPDALVVSVGGAEPSGNPAGRQWFSVQGITEDNRQARVDAIMPTFIETVRYWQKQSGVGANATALIGFSQGAIMALESIKAEPGLASRVIAFNGRYASLPETASTATTIHLIHGGEDPVIDLAHAVAAQEALISAGGDVTLDIVEDLGHAIDNRSMQLALDHLRYTIPKHY,failed
9,TVASRLSDTKAAGEVKALDDFYKMLQHEPDRAFYGLKQVEKANEAMAIDTLLISDELFRHQDVATRSRYVRLVDSVKENAGTVRIFSSLHVSGEQLSQLTGVAAILRFPVP,not failed
10,TVDLNMQRRAEETVQKAFQQARSRGLRADQIAVAAVDPRTHFVKVLVGGRDYEESQFNRAIQSQRQPGSAFKPFVYYSAFASGNYTPFSTIDDSPVSYPDGNGTYSPQNYGGSFSGTVSLYDALVTSKNVPAVKLGKAVGLEKVIELCRLLGIESPLQPVISLPLGAVGISPLEMASAYATFASNGWQSETTLILRVTDSQGNVLLDNTPQPRLVLDPWATASLTTVLQGVVNGGTGQAANLGDRPAAGKTGTTSSERDVWFVGYVPQLAAAVWIGNDDYRPMGTGTTGGGDAAPIWRAFMQEALKGEEPQYF,failed
11,TYWDVDFPRLDQRDSTLTEADHIANVRAALLEAVEMRMVADVPVGCYLSGGIDSCSILGLASAVSQGPVKAFTIGFDDARYDETPIAAEMAEATGAEQDVMRLSGRELYGHMEQTLWHTERTIYNTLAVAKYLMSRHVNSVDYKVVMTGEGSDELFGGYPAFRRDMFLHGLEDLPQSDRQDWESLLQTNNSLVQGAMLAADQVDDPDLDAVVGFTPSCLQPWLACAPLVPDLLADEHRQALVEYSPGKAIAEQLNPQQLDGRHALDKAQYVWIKTMLEGQILTWGGDRVDMANSMEARPAFLDHHLAAAAVQVPPELRIKGKTEKYVLREAMAGLLPEVLYKREKFAFMAPPAHTEPEKWAQMKQLADDYLSDEAIDAAGLLSKEGVRALFARHDDPATTDAERVQMDAVINHLLG,failed
12,VAGKVEARKAALREKLIDLAEAQIEAEGLASLRARELARQADCAVGAIYTHFQDLNALTLEVNGRTFARLGAAVGAVVADGQDDHPNERLIAMSHAYLAFAREHPKLWRALFDVEMRSDGPVPQWYGHAMAQLFSYITTPLAKIFPESDDAELDLMTRTLFSSVHGIVLLGLENRISGVPGEQLKTMIRLLLEQVGR,not failed
13,VAITDNRGVITHVNEKFCDISQYEYYELVGTTHKIINSGFHPRSFFKQMWKTIAQGNIWKGEICNRTKQGKLYWVDTTIVPLKDNDGLLKNYISIRTDITQ,failed
14,VFEQELENGLRLFIIPKPGFQKTFVTYTTQFGSLDNQFKPLGQDQFVTVPDGVAHFLEHKLFEKEEEDLFTAFAEDNAQANAFTSFDRTSYLFSATDNIENNIKRLLTMVETPYFTKETVDKEKGIIAEEIKMYQEQPGYKLMFNTLRAMYQRHPIRVDIAGSVESIYDITKDDLYLCYETFYHPSNMVLFVVGDVNPEEICRIVKQH,failed
15,VINQVESASKVIDWPLALKRSANKADLAKEMLLGLVESLPETQLSIREAIDVQDIAQIKRLVHKLNGACCYTGTPNLAKITIQLETQLKMGLSTEELEPEFLEFFEHIEQVLFAVPEALKEMSEN,failed
16,VIRDLQKLLASMEPSLNPGTYAFVVAPADIQIPQDQIVASVCEPEGQSLVIPEQLAHERGLPVTYSAAWITLTVHSDLAAVGLTATFAGALGQAGISCNVIAGVHHDHLFVPADQAQQAMAVLFDLQRAAA,failed

row,Sequence,protein production
1,VKLVEEYIAANWNESLTIEKLVELTGMSARTVFKAFQRTRGYSPMAFAKRVRMERVRQLLLEAGGDASVGAIAVQCGFPHLGHFAKDYRKTFGENPSDTLARGRRFRGVR,not failed
2,VKMSDKWIEIEEILSGLIGDLTIAVTVLKDYEGKAFLREPQHQTKRQCIWRLCVYSIVINCRKYVELNQKYGKEFQALIPGHNHIRGVYNNEINKNTAIKKLRNHCVAHVSDKSKYLKPAEVQEEIIKMFDGNFADEFLDWICPDNISTTDKSESLVGVIELLRDAVSAKL,not failed
3,VLEVTQKATPNPSLLAAEDQVPCEKCGSLVPVWDMPEHMDYHFALELQKSFLQPHSSNPQVVSAVSHQGKRNPKSPLACTNKRPRPEGMQTLESFFKPLTH,failed
4,VLTMPLVTSISQLNEPITLVSYTMGNVNGVPVNNVRKEHFTTWALVLSQYLSEVKASVGTKLEDTVTFVVRYDQPETILNSWRIEWQEKQYDIVKLTPDTAKKQWTTIIGKPVANK,not failed
5,VPRIAEVRDAAEPSSEEQRARHVRMLEAAIELATEKELARVQMHEVAKRAGVAIGTLYRYFPSKTHLFVAVMVDQIDRMGVGFKKSAPPGESPQDAVYNVLVRATRGLLRRPALSTAMIQSTSTANVASVPDAGKVDRAFRQIMLDAAGIEHPTEEDLTALRLLVQLWFGVIQSCLNGRVSIPDAESDIRRACDLLLVNLSHR,not failed
6,VQSKNPVLIEGFPGIGLVGNIASQHIIEELNMEYIGSIDSRYFPSIAVLYEGLINMPVRIYENVEHNLIIVISDIPISHSVSYDVSNALVDWAEAINVKEIASIAGIAIMDGGHKVFGAATTPEMLDKIRDKVEIFQMGTISGISGSVMAECLLRGIPAISLLGATRTQNPDPRAASSVIGVLNELYGLSISTDRLIEQAERIEIELQRLAEDVQATERKGEVKKEFPMYG,failed
7,VRLRNLVESDRERLLIWRNSPDVSAYMYSDHKIGHEEHDHWFDVARHDPRRRYWIIEADGEPVGLANLADIDLVHRRCAWAYYLASPKVRGLGVGSFVEFQIIEYVFNQLHLNKLWCEVLISNESVWRLHELYGFQREALFRQHVMKQGHEVDVIGLGLLASDWAARR,failed
8,VTGDRAGGRSWCLRRVGMSAGWLLLEDGCEVTVGRGFGVTYQLVSKICPLMISRNHCVLKQNPEGQWTIMDNKSLNGVWLNRARLEPLRVYSIHQGDYIQLGVPLENKENAEYEYEVTEEDWETIYPCLSPK,not failed
9,VTGSIRSKLSAIDVRQLGTVDYRTAWQLQRELADARVAGGADTLLLLEHPAVYTAGRRTETHERPIDGTPVVDTDRGGKITWHGPGQLVGYPIIGLAEPLDVVNYVRRLEESLIQVCADLGLHAGRVDGRSGVWLPGRPARKVAAIGVRVSRATTLHGFALNCDCDLAAFTAIVPCGISDAAVTSLSAELGRTVTVDEVRATVAAAVCAALDGVLPVGDRVPSHAVPSPL,not failed
10,VTRAIILAHGYATASSIANVANRLLKSQLFESFDMPLDVTPEAIANQVMAYIESHALASGLIILVDMGSLNAIHRHFNRRLSTPMAIINNVSTGMAMYVGERILQGVMLEDIVREIGDDLAVEHQLYYPQTDKP,failed
11,VVEFTTCPDKPGIPVKPSVKGKIHSHSFKITWDPPKDNGGATINKYVVEMAEGSNGNKWEMIYSGATREHLCDRLNPGCFYRLRVYCISDGGQSAVSESLLVQTPAV,not failed
12,VVENYETQFVTFVESEMEQDLAHDLNHVFRVVKTAKLLSKIEGAMLEVVLPAAYLHDCFSFPKNHPNKAESSRIAADKALEFLNEIGYPNEYHDAIKHAIIAHSFSAKVQPDTLEAKVVQDADRLDALGAIGIARCIQVSTNLGVGLYDATDPFCGTREPNDRVNTVDHFYTKLFKLPEIMHTASAKVEAEKRMKFMKAYLIQLGMEIEPYS,failed
13,VWWQLHYGPHPDERELDLEGWTTRVLDATRDAVAIRQRAAVDVGVLLSGGVDSSLLVGLLREVGVDDLSTFSIGFEDAGGERGDEFQYSDLIAKHYGTRHHQLRIAEHEIIDQLPAAFRAMSEPMVSHDCIAFYLLSREVAKHCKGVQSGQGADELFAGYHWYPQVDGADDAYAAYREAFFDRSHAEYRDTVQAPWLLETDAAGDFVREHFARPGAPAAVDKALRLDSTVMLVDDPVKRVDNMTMAWGLEARTPFLDYRLVELSARIPARFKLPDGGKQVLKQAARRVIPHEVIDRKKGYFPVPGLKHLEGATLGWVRELLTDPSQDRGLFNPTMLDRLLSNPHGQLTPLRGSKLWQLAALNLWLS,failed
14,WLDDGKNGGQLGSVEASAVYRNTQVFGEAAYATEPGALSWICGVQSDLAKGITGVVSMRDYAFEYYSPFAGAFAERGDNASNESGLYLGLKAKVRDNLTLAGLYDRFRFPVLDKRYYVYPSSGYEARFYATWKQNRWMTWDAMYQHKEKEEAKKQFDSNIGTSRYIPVPKITNRVQLGLVVECSPGITLKSRAAFKSLRSHFVTGAESEEGWLLYQQINLKRGPFTLKTRLARFDTDSYDVALYAYEDDLPLVYMLNAYYGRGKAWFIVLDFEPVKNFNLTAKYETTWYDDRDVYSSGNDLRNTSSPGSYHVGCMLKF,failed
15,WQGLSSKGDLPQVEITKAFFAKQADEVTLQQADVVLVLQQEDGWLYGERLRDGETGWFPEDFARFI,not failed
16,WYEDGLVCTLAYQNHRAPLVFIIAGTGASHNTPRMVKLRSALYQGGFHVISLTSPTHMDFVVNASSGLPGDPLDDARDLYRVMEMAYDAVRDTIDVSGFDLAGYSLGAFNAAFVARLDEEEKRFNFSKVLLINPPVSLYESVAALDQLLVENVPQGMEQFDAWFRSVFAEFSHVSREVGPGSLSGDFIYSAYKRFPPNEENLAALIGLSFRMSAANMIFTADVMNGGGYIVPRNARLTATSSLTRYATVSLHTRFTDYFDEWFFPNRRHREPSLTRQALLARMSLRSQEAYLRNADKVGLIHNEDDIILAPGDIDYLQGVFGGRARLFPTGGHMGNMFHPDVVSFMIDFL,failed
